Target: the molecule itself
Assay: crystal structure

B1: K47A mutant of human thymidylate synthase (enzyme)
chain: MPVAGSELPRRPLPPAAQERDAEPRPPHGELQYLGQIQHILRCGVRADDRTGTGTLSVFGMQARYSLRDEFPLLTTKRVFWKGVLEELLWFIKGSTNAKELSSKGVKIWDANGSRDFLDSLGFSTREEGDLGPVYGFQWRHFGAEYRDMESDYSGQGVDQLQRVIDTIKTNPDDRRIIMCAWNPRDLPLMALPPCHALCQFYVVNSELSCQLYQRSGDMGLGVPFNIASYALLTYMIAHITGLKPGDFIHTLGDAHIYLNHIEPLKIQLQREPRPFPKLRILRKVEKIDDFKAEDFQIEGYNPHPTIKMEMAV
  binding result: binds
